Source: article PMC8537947, “Improved Radiolytic Stability of a ^68Ga-labelled Collagelin Analogue for the Imaging of Fibrosis” (Pharmaceuticals, 2021)
Bridge positions count the residues as written; N and C are the ends. Square brackets hold non-standard residues; d marks the D form. Peptide text beside a SMILES is read from it. * marks the point of attachment. NOTA = O=C(O)CN1CCN(CC(=O)O)CCN(CC(=O)*)CC1; Nle = CCCC[C@H](N)C(=O)O; AEEA = NCCOCCOCC(=O)O

Assay: in vivo
Set-up: species or system Sprague-Dawley rats
Details: rat; for SUV at 2 h / SUV at 5 min / SUV at 10 min / SUV at 40 min / SUV at 1 h / SUV at 0.5 h: Sprague-Dawley, iv, total radioactivity
Protocol: Sixteen male (n = 10; 363.3 ± 19.6 g) and female (n = 6; 199.2 ± 5.5 g) Sprague–Dawley rats were used for ex vivo organ distribution of the [^68Ga]Ga-NO2A-[Nle13]-Col for the subsequent extrapolation and calculation of human dosimetry. The male and female animals were administered into the tail vein with, respectively, 2.3 ± 0.8 MBq and 1.4 ± 0.5 MBq, sacrificed at 5, 10, 30, 40, 60, and 120 min post administration, and the organs were harvested, weighted, and measured for their radioactivity content. Samples from the blood, heart, lung, liver, spleen, adrenal glands, kidneys, intestines with or without contents, muscle, testis, bone, brain, pancreas, urine bladder, and bone marrow were collected. To monitor radioactivity elimination and recovery, the radioactivity of the remaining carcass was also measured. The radioactivity measurements were corrected for decay and converted into standardized uptake values (SUVs, Table S2) according to Equation (2), wherein the radioactivity is expressed in MBq and the weight in grams:(2) SUV=Radioactivityorgan∗weightrat/Radioactivityinjected∗weightorgan

[1] = male, SUV large intestine without content (INL-)
[2] = male, SUV small intestine with its content (INS+)

CCCC[C@@H]1NC(=O)[C@H](C(C)C)NC(=O)[C@H](CCCNC(=N)N)NC(=O)CNC(=O)[C@@H]2CCCN2C(=O)[C@@H](NC(=O)COCCOCCNC(=O)CN2CCN(CC(=O)O)CCN(CC(=O)O)CC2)CSSC[C@@H](C(=O)O)NC(=O)[C@@H]2CCCN2C(=O)CNC(=O)[C@H](CCC(=O)O)NC(=O)[C@H](CC(=O)O)NC(=O)[C@H](CC(=O)O)NC(=O)CNC(=O)[C@H](CC(C)C)NC(=O)[C@H](Cc2c[nH]cn2)NC(=O)[C@H](CC(C)C)NC(=O)CNC(=O)[C@H](Cc2c[nH]cn2)NC1=O [[^68Ga]Ga-NO2A-[Nle^13]-Col, [^68Ga]Ga-NOTA-PEG2-c[CPGRVNleHGLHLGDDEGPC], metal not drawn] ({NOTA-AEEA}-CPGRV[Nle]HGLHLGDDEGPC-OH; disulfide 1-18)
SUV at 2 h (female, SUV spleen (SP)): 0.066 SUV | SUV at 5 min (male, 2.3 MBq, SUV blood (BL)): 2.22 SUV | SUV at 10 min (male, 2.3 MBq, SUV blood (BL)): 1.53 SUV | SUV at 40 min (male, 2.3 MBq, SUV heart (HE)): 0.225 SUV | SUV at 1 h (male, 2.3 MBq, SUV heart (HE)): 0.123 SUV | SUV at 2 h (male, 2.3 MBq, SUV heart (HE)): 0.024 SUV | SUV at 5 min (male, 2.3 MBq, SUV liver (LI)): 0.478 SUV | SUV at 10 min (male, 2.3 MBq, SUV liver (LI)): 0.308 SUV | SUV at 0.5 h (male, 2.3 MBq, SUV liver (LI)): 0.193 SUV | SUV at 40 min (male, 2.3 MBq, SUV liver (LI)): 0.198 SUV | SUV at 1 h (male, 2.3 MBq, SUV liver (LI)): 0.112 SUV | SUV at 2 h (male, 2.3 MBq, SUV liver (LI)): 0.0624 SUV | SUV at 1 h (male, 2.3 MBq, SUV lungs (LU)): 0.217 SUV | SUV at 2 h (male, 2.3 MBq, SUV lungs (LU)): 0.0955 SUV | SUV at 5 min (male, SUV TE (testis)): 0.354 SUV | SUV at 10 min (male, SUV TE (testis)): 0.318 SUV | SUV at 0.5 h (male, SUV TE (testis)): 0.216 SUV | SUV at 40 min (male, SUV TE (testis)): 0.245 SUV | SUV at 1 h (male, SUV TE (testis)): 0.118 SUV | SUV at 2 h (male, SUV TE (testis)): 0.0322 SUV | SUV at 5 min (male, SUV adrenals (AD)): 0.82 SUV | SUV at 10 min (male, SUV adrenals (AD)): 0.549 SUV | SUV at 0.5 h (male, SUV adrenals (AD)): 0.464 SUV | SUV at 40 min (male, SUV adrenals (AD)): 0.284 SUV | SUV at 1 h (male, SUV adrenals (AD)): 0.494 SUV | SUV at 2 h (male, SUV adrenals (AD)): 0.249 SUV | SUV at 5 min (male, SUV bladder (UB)): 2.51 SUV | SUV at 10 min (male, SUV bladder (UB)): 3.13 SUV | SUV at 0.5 h (male, SUV bladder (UB)): 5.01 SUV | SUV at 40 min (male, SUV bladder (UB)): 2.8 SUV | SUV at 1 h (male, SUV bladder (UB)): 3.73 SUV | SUV at 2 h (male, SUV bladder (UB)): 0.896 SUV | SUV at 0.5 h (male, SUV blood (BL)): 0.8 SUV | SUV at 40 min (male, SUV blood (BL)): 0.624 SUV | SUV at 1 h (male, SUV blood (BL)): 0.316 SUV | SUV at 2 h (male, SUV blood (BL)): 0.052 SUV | SUV at 5 min (male, SUV bone (BO)): 0.12 SUV | SUV at 10 min (male, SUV bone (BO)): 0.243 SUV | SUV at 0.5 h (male, SUV bone (BO)): 0.143 SUV | SUV at 40 min (male, SUV bone (BO)): 0.127 SUV | SUV at 1 h (male, SUV bone (BO)): 0.2 SUV | SUV at 2 h (male, SUV bone (BO)): 0.0384 SUV | SUV at 5 min (male, SUV brain (BR)): 0.0955 SUV | SUV at 10 min (male, SUV brain (BR)): 0.0507 SUV | SUV at 0.5 h (male, SUV brain (BR)): 0.0346 SUV | SUV at 40 min (male, SUV brain (BR)): 0.0272 SUV | SUV at 1 h (male, SUV brain (BR)): 0.0268 SUV | SUV at 2 h (male, SUV brain (BR)): 0.0058 SUV | SUV at 5 min (male, SUV heart (HE)): 0.97 SUV | SUV at 10 min (male, SUV heart (HE)): 0.605 SUV | SUV at 0.5 h (male, SUV heart (HE)): 0.338 SUV | SUV at 5 min (male, SUV kidneys (KI)): 19.2 SUV | SUV at 10 min (male, SUV kidneys (KI)): 14.2 SUV | SUV at 0.5 h (male, SUV kidneys (KI)): 13.6 SUV | SUV at 40 min (male, SUV kidneys (KI)): 13.1 SUV | SUV at 1 h (male, SUV kidneys (KI)): 8.67 SUV | SUV at 2 h (male, SUV kidneys (KI)): 11.5 SUV | SUV at 5 min [1]: 1.01 SUV | SUV at 10 min [1]: 0.919 SUV | SUV at 0.5 h [1]: 0.476 SUV | SUV at 40 min [1]: 0.289 SUV | SUV at 1 h [1]: 0.243 SUV | SUV at 2 h [1]: 0.0668 SUV | SUV at 5 min (male, SUV lungs (LU)): 1.28 SUV | SUV at 10 min (male, SUV lungs (LU)): 1 SUV | SUV at 0.5 h (male, SUV lungs (LU)): 0.566 SUV | SUV at 40 min (male, SUV lungs (LU)): 0.563 SUV | SUV at 5 min (male, SUV muscle (MU)): 0.401 SUV | SUV at 10 min (male, SUV muscle (MU)): 0.507 SUV | SUV at 0.5 h (male, SUV muscle (MU)): 0.116 SUV | SUV at 40 min (male, SUV muscle (MU)): 0.104 SUV | SUV at 1 h (male, SUV muscle (MU)): 0.106 SUV | SUV at 2 h (male, SUV muscle (MU)): 0.0164 SUV | SUV at 5 min (male, SUV pancreas (PA)): 0.472 SUV | SUV at 10 min (male, SUV pancreas (PA)): 0.419 SUV | SUV at 0.5 h (male, SUV pancreas (PA)): 0.261 SUV | SUV at 40 min (male, SUV pancreas (PA)): 0.2 SUV | SUV at 1 h (male, SUV pancreas (PA)): 0.111 SUV | SUV at 2 h (male, SUV pancreas (PA)): 0.0272 SUV | SUV at 5 min (male, SUV red bone marrow (BM)): 0.584 SUV | SUV at 10 min (male, SUV red bone marrow (BM)): 0.543 SUV | SUV at 0.5 h (male, SUV red bone marrow (BM)): 0.262 SUV | SUV at 40 min (male, SUV red bone marrow (BM)): 1.01 SUV | SUV at 1 h (male, SUV red bone marrow (BM)): 1.15 SUV | SUV at 2 h (male, SUV red bone marrow (BM)): 0.154 SUV | SUV at 5 min [2]: 0.731 SUV | SUV at 10 min [2]: 0.5 SUV | SUV at 0.5 h [2]: 0.256 SUV | SUV at 40 min [2]: 0.412 SUV | SUV at 1 h [2]: 0.132 SUV | SUV at 2 h [2]: 0.0313 SUV | SUV at 5 min (male, SUV spleen (SP)): 0.541 SUV | SUV at 10 min (male, SUV spleen (SP)): 0.376 SUV | SUV at 0.5 h (male, SUV spleen (SP)): 0.241 SUV | SUV at 40 min (male, SUV spleen (SP)): 0.205 SUV | SUV at 1 h (male, SUV spleen (SP)): 0.126 SUV | SUV at 2 h (male, SUV spleen (SP)): 0.0652 SUV | decrease of kidney SUV: 40-50% | highest SUV (kidneys): around 12 SUV
